Measured values: the DeepSol protein solubility set

Experiment: soluble on expression in E. coli; label from the status in PepcDB or PDB records
For “MSLIVKVSPKGSMDQLSQLEVDRLKKSAQSALYQLYRNCSLAVLAAGLKTDNSKALFEQYSDFDIHVLQRERGVKLELINPPEQAFVDGQIITGIQEHLFSVLRDILYISDKYDTLKHINLTNASHITNVVFDILRNARAIAPMKDPNVVVCWGGHSINAIEYQYTREVGYQLGLRELDICTGCGPGAMEGPMKGAAIGHSKQRIKNARYIGLTEPSIIAAEPPNQIVNELVILPDIEKRLEAFVRLGHGIIIFPGGAGTAEELLYILGILLNKENQETPFPLVLTGPSESADYFIKIDEFIAATLGPEAQQKYQIIIDNPAEVARVMKQGMEQVKNHRRTTGDAYQYQWGLKIEPEFQLPFIPTHDVMANLNLHFQSNKAELAANLRKAFSGIVAGNVKSETIKQIEQLGPFHIKGDPHLMELMDNLLGAFVAQHRMKLPGSAYVPCYQIVKEGHHHHHH”, the “soluble on expression in E. coli” value was “soluble”.
In the case of “MSFKGFKVVMLILLSTQSYASKLASSIVCDSTIENPCIVQDSKTQFSPVIRYREVASIADVYGGNITGINKFHLSGSEQPSEKGWEAIAESISRKMGAETKKVIVLDLRQESHGYLNGRAITLVSAYNWINLGKSNSQSTLDQENWLAGLRSRKIVNGVLTVPQYVAKQYSQGKSMVVSTVKNEEYYVYKKGFDYYRIFISDHRAPLDSEVDALVALIKNNPEDTWYHVHCRGGKGRTTTVFAMFDMLKNADKVSFEEIIARQASIPPFYNLMVTNREIPELTPYYEQRLQFLIHFYEFARQSLMGYSGTWSEWKKLNI”, the “soluble on expression in E. coli” value is reported as “not soluble”.
With “MEEDSIHLPTHLRLQPIYWSRDDVAQWLKWAENEFSLRPIESNKFEMNGKALLLLTKEDFRYRSPHSGDVLYELLQHILKQRKSRMLFSPFFPPGDSIHTKPEVLLHQNHDEDNCVQRTPRTPAESVHHNPPTIELLHRPRSPITTNHRPSPDPEQQRPQRSPLDNMSRRLSPVEKAQGPRLQQENNHQETYPLSVSPVENNHCLPSSPWQESTRVIQLMPSPIMHPLILNPRHSHSVDFKQSRHSEDGMNREGKPINLSHREDLAYLNHIMVSMSPPEEHAMPIGRIADCRLLWDYVYQLLSDSRYENFIRWEDKESKIFRIVDPNGLARLWGNHKNRTNMTYEKMSRALRHYYKLNIIRKEPGQRLLFRFMKTPDEIMSGRTDRLEHLESQVLDEQTYQEDEPTIASPVGWPRGNLPTGTAGGVMEAGELGVAVKEETRE” the “soluble on expression in E. coli” value was “soluble”.
In the case of “MLITDTLSPQAFEEALRAKGDFYHIHHPYHIAMHNGNATREQIQGWVANRFYYQTTIPLKDAAIMANCPDAQTRRKWVQRILDHDGSHGEDGGIEAWLRLGEAVGLSRDDLLSERHVLPGVRFAVDAYLNFARRACWQEAACSSLTELFAPQISQSRLDSWPQHYPWIKEEGYFYFRSRLSQANRDVEHGLALAKAYCDSAEKQNRMLEILQFKLDILWSMLDAMTMAYALQRPPYHTVTDKAAWHTTRLVLEHHHHH”, the “soluble on expression in E. coli” value is reported as “soluble”.
For “MFPAQEEADRTVFVGNLEARVREEILYELFLQAGPLTKVTICKDREGKPKSFGFVCFKHPESVSYAIALLNGIRLYGRPINVQYRFGSSRSSEPANQSFESCVKINSHNYRNEEMLVGRSSFPMQYFPINNTSLPQEYFLFQKMQWHVYNPVLQLPYYEMTAPLPNSASVSSSLNHVPDLEAGPSSYKWTHQQPSDSDLYQMTAPLPNSASVSSSLNHVPDLEAGPSSYKWTHQQPSDSDLYQMNKRKRQKQTSDSDSSTDNNRGNECSQKFRKSKKKKRY”, the “soluble on expression in E. coli” value was “soluble”.
With “MLSGREMSMSHINYNHLYYFWHVYKEGSVVGAAEALYLTPQTITGQIRALEERLQGKLFKRKGRGLEPSELGELVYRYADKMFTLSQEMLDIVNYRKESNLLFDVGVADALSKRLVSSVLDAAVVEDEQIHLRCFESTHEMLLEQLSQHKLDMIISDCPIDSTQQEGLFSMKIGECGVSFWCTNPLPEKPFPACLEERRLLIPGRRSMLGRKLLNWFNSQGLNVEILGEFDDAALMKAFGATHNAIFVAPSLYANDFYNDDSVVEIGRVENVMEEYHAIFAERMIQHPAVQRICNTDYSALFTPASK” the “soluble on expression in E. coli” value was “not soluble”.
For “DMRVVSVNPAARRLLDLPDDYIPIERPLEEVCAKIPFGPDELGEGESRTWRLPTAEVRRITRMRFFDRSFSRLFFSIETLTEELHSAEKEAYEKLIRLIAHEVNNSTAGIIGVLNAVGDAFDDTPHTPEGEVSEAIALCRDRCMAMSRFITRFAEVVKLPDPTLSSVDLVPLCERCILLMQPLAVETGVKMKMCKEQDSCLVRCDAEQIEQVVINLLRNAIESFAQQNDLAVSATKTVLLCLDRHNLLVEDNGQPISDDVATRLFTPFFSTKPNGQGIGLVVIREVLTRHGWSFSLTTDADGRTRFRMAWP”, the “soluble on expression in E. coli” value was “not soluble”.
